Assay results as given in paper PMC7020754.

T1: Rv0023 (XRE family transcription regulator) (Mycobacterium tuberculosis, UniProt P9WMI3 1-256)
T1 sequence: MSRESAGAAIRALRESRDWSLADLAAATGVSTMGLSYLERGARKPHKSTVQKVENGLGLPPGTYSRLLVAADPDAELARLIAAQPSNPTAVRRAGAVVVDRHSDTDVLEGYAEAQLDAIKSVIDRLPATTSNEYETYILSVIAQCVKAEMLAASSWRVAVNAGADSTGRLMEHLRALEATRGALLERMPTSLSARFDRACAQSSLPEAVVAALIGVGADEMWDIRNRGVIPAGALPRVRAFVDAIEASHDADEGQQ

B1: OL4 (dsDNA)
DNA 1: ACGCTTTTGCCTATGTTTCGTTCAACAAGGAGGCCGGCAC
DNA 2: GTGCCGGCCTCCTTGTTGAACGAAACATAGGCAAAAGCGT
B2: F1 (dsDNA)
DNA 1: AGAGCCCGCCACAGACATATACGCTTTTGCCTATGTTTCGTTCAACAAGGAGGCCGGCAC
DNA 2: GTGCCGGCCTCCTTGTTGAACGAAACATAGGCAAAAGCGTATATGTCTGTGGCGGGCTCT
B3: OL2 (dsDNA)
DNA 1: TTTTATCGCGATTCTCTTGCAGAGCCCGCCACAGACATAT
DNA 2: ATATGTCTGTGGCGGGCTCTGCAAGAGAATCGCGATAAAA
B4: F2 (dsDNA)
DNA 1: CACCCCTTATGTATATACGTTTTTATCGCGATTCTCTTGCAGAGCCCGCCACAGACATAT
DNA 2: ATATGTCTGTGGCGGGCTCTGCAAGAGAATCGCGATAAAAACGTATATACATAAGGGGTG
B5: OL1 (dsDNA)
DNA 1: CACCCCTTATGTATATACGTTTTTATCGCGATTCTCTTGC
DNA 2: GCAAGAGAATCGCGATAAAAACGTATATACATAAGGGGTG
B6: OL5 (dsDNA)
DNA 1: ATTCTCTTGCAGAGCCCGCCACAGACATATACGCTTTTGC
DNA 2: GCAAAAGCGTATATGTCTGTGGCGGGCTCTGCAAGAGAAT
B7: F6 (dsDNA)
DNA 1: GCTCAGGCCCATGGTGCTTACGCCAGTGGCGGCCGCCAGGTCCGCGAGGGACCAGTCACG
DNA 2: CGTGACTGGTCCCTCGCGGACCTGGCGGCCGCCACTGGCGTAAGCACCATGGGCCTGAGC
B8: F5 (dsDNA)
DNA 1: TCCGCGAGGGACCAGTCACGCGACTCGCGAAGTGCGCGAATGGCCGCGCCGGCCGACTCA
DNA 2: TGAGTCGGCCGGCGCGGCCATTCGCGCACTTCGCGAGTCGCGTGACTGGTCCCTCGCGGA
B9: OL3 (dsDNA)
DNA 1: AGAGCCCGCCACAGACATATACGCTTTTGCCTATGTTTCG
DNA 2: CGAAACATAGGCAAAAGCGTATATGTCTGTGGCGGGCTCT
B10: F3 (dsDNA)
DNA 1: CCATAAGCCGGATACTACCCGGATACGACTCGGCCGCGGCCACCCCTTATGTATATACGT
DNA 2: ACGTATATACATAAGGGGTGGCCGCGGCCGAGTCGTATCCGGGTAGTATCCGGCTTATGG
B11: F4 (dsDNA)
DNA 1: TGGCCGCGCCGGCCGACTCACGGCTCACCGCACGCTCCGGCCATAAGCCGGATACTACCC
DNA 2: GGGTAGTATCCGGCTTATGGCCGGAGCGTGCGGTGAGCCGTGAGTCGGCCGGCGCGGCCA
B12: M0 (dsDNA)
DNA 1: AGAGCCCGCCACAGACATATACGCTTTTGCCTATGTTTC
DNA 2: GAAACATAGGCAAAAGCGTATATGTCTGTGGCGGGCTCT
B13: M9 (dsDNA)
DNA 1: AGAGCCCGCCACAGACATATACTCTTTTGCCTATGTTTC
DNA 2: GAAACATAGGCAAAAGAGTATATGTCTGTGGCGGGCTCT
B14: M10 (dsDNA)
DNA 1: AGAGCCCGCCACAGACATATATGCTTTTGCCTATGTTTC
DNA 2: GAAACATAGGCAAAAGCATATATGTCTGTGGCGGGCTCT
B15: M1 (dsDNA)
DNA 1: AGAGCCCGCCACAGACAGATACGCTTTTGCCTATGTTTC
DNA 2: GAAACATAGGCAAAAGCGTATCTGTCTGTGGCGGGCTCT
B16: M5 (dsDNA)
DNA 1: AGAGCCCGCCACAGACATATACGCGTTTGCCTATGTTTC
DNA 2: GAAACATAGGCAAACGCGTATATGTCTGTGGCGGGCTCT
B17: M4 (dsDNA)
DNA 1: AGAGCCCGCCACAGACATATGCGCTTTTGCCTATGTTTC
DNA 2: GAAACATAGGCAAAAGCGCATATGTCTGTGGCGGGCTCT

Target: T1, Rv0023 (XRE family transcription …)
Test: EMSA; 8 pmol protein
Details: protein: recombinant, tags: His (implied by Ni-NTA purification; pET23a, also printed pET21b), chain copies: 2, label: 32P

Binder | binding result (blunt) | binding result
B1 | no binding | 
B2 | binds | 
B3 | no binding | 
B4 | binds | 
B5 | binds | 
B6 | no binding | 
B7 | no binding | 
B8 | no binding | 
B9 | binds | 
B10 | no binding | 
B11 | no binding | 
B12 |  | binds
B13 |  | binds
B14 |  | binds
B15 |  | binds
B16 |  | binds
B17 |  | binds
